± gives the uncertainty stated by the source.
B1: POU domain, class 2, transcription factor 1, residues 285 to 354; numbered along this chain, P14859 (parent)
chain: LEELEQFAKTFKQRRIKLGFTQGDVGLAMGKLYGNDFSQTTISRFEALNLSFKNMCKLKPLLEKWLNDAE

Variants of: B1
Assay: abundance fitness (aPCA) (normalised: wild type 0, dead -1); higher = more abundant; growth selection in yeast, the domain comes from the species named
Settings: Homo sapiens

Row | Variant | abundance fitness
1 | P60V | -0.141 ± 0.064
2 | P60Y | -0.217 ± 0.04
3 | P60K | -0.072 ± 0.047
4 | L4F | -0.483 ± 0.16
5 | L4S | -0.263 ± 0.21
6 | K12P | -0.085 ± 0.049
7 | K12F | -0.307 ± 0.032
8 | K12Y | -0.157 ± 0.033
9 | K12V | -0.05 ± 0.024
10 | K12N | -0.107 ± 0.038
11 | N67D | 0.024 ± 0.19
12 | F52R | -0.001 ± 0.022
13 | F52A | 0.017 ± 0.079
14 | F52M | -0.026 ± 0.026
15 | F52Q | -0.059 ± 0.039
16 | F52C | -0.037 ± 0.031
17 | F52D | 0.007 ± 0.043
18 | F52T | 0.02 ± 0.072
19 | R15V | -0.815 ± 0.042
20 | R15N | -0.902 ± 0.38
21 | R15E | -0.971 ± 0.091
22 | R15S | -0.974 ± 0.054
23 | R15A | -0.835 ± 0.063
24 | R15L | -0.826 ± 0.025

Row | Variant | abundance fitness
25 | E46H | -0.856 ± 0.23
26 | E46C | -0.801 ± 0.13
27 | E46N | -0.783 ± 0.17
28 | E46T | -0.934 ± 0.072
29 | G34N | -0.041 ± 0.1
30 | G34H | -0.097 ± 0.075
31 | G34D | -0.036 ± 0.096
32 | G34C | -0.023 ± 0.081
33 | E5C | -0.114 ± 0.037
34 | E5P | -0.571 ± 0.075
35 | E5G | -0.019 ± 0.021
36 | E5T | -0.004 ± 0.041
37 | E5A | -0.022 ± 0.026
38 | A69Q | 0.057 ± 0.029
39 | A69C | -0.001 ± 0.022
40 | A69T | -0.012 ± 0.019
41 | A69L | -0.064 ± 0.02
42 | A69E | 0.016 ± 0.04
43 | A69V | 0.014 ± 0.024
44 | A69S | -0.004 ± 0.018
45 | A69R | 0.013 ± 0.022
46 | F45Q | -1.02 ± 0.042
47 | F45V | -0.429 ± 0.034
48 | F45I | -0.382 ± 0.043

Row | Variant | abundance fitness
49 | F45Y | -0.133 ± 0.046
50 | F45T | -0.847 ± 0.058
51 | F45A | -0.62 ± 0.096
52 | A8F | -0.602 ± 0.063
53 | A8M | -0.205 ± 0.042
54 | A8V | 0.01 ± 0.028
55 | A8Q | -0.283 ± 0.045
56 | A8S | -0.082 ± 0.03
57 | A8N | -0.625 ± 0.14
58 | M29G | -0.377 ± 0.041
59 | M29D | -0.727 ± 0.07
60 | I42G | -1.09 ± 0.058
61 | I42K | -0.789 ± 0.08
62 | I42P | -0.877 ± 0.04
63 | I42N | -0.805 ± 0.091
64 | T40I | -0.142 ± 0.078
65 | T40N | 0.004 ± 0.13
66 | T40S | -0.007 ± 0.032
67 | T40P | -0.032 ± 0.023
68 | T40D | -0.15 ± 0.11
69 | T40Y | 0.077 ± 0.21
70 | L66T | -0.206 ± 0.052
71 | L66D | -0.854 ± 0.073
72 | L66N | -0.848 ± 0.17

Row | Variant | abundance fitness
73 | L66W | -0.355 ± 0.043
74 | L66R | -0.667 ± 0.046
75 | L66A | -0.037 ± 0.038
76 | C56W | -0.005 ± 0.039
77 | C56G | -0.047 ± 0.022
78 | C56A | -0.004 ± 0.023
79 | C56V | -0.01 ± 0.036
80 | C56F | 0.027 ± 0.066
81 | L32V | -0.226 ± 0.19
82 | L32T | 0.005 ± 0.022
83 | L32A | -0.006 ± 0.029
84 | L32H | -0.004 ± 0.047
85 | L32Q | -0.012 ± 0.024
86 | K17D | 0.001 ± 0.082
87 | K17M | -0.007 ± 0.024
88 | L61N | -0.017 ± 0.11
89 | L61W | -0.038 ± 0.035
90 | L61P | -0.006 ± 0.063
91 | L61K | -0.031 ± 0.042
92 | L61I | -0.097 ± 0.084
93 | S43L | -0.067 ± 0.018
94 | S43H | -0.077 ± 0.042
95 | S43C | -0.033 ± 0.086
96 | S43I | -0.064 ± 0.05

Row | Variant | abundance fitness
97 | S43E | -0.013 ± 0.088
98 | D24H | -0.06 ± 0.037
99 | E2N | 0.109 ± 0.072
100 | E2C | -0.152 ± 0.051
101 | E2P | -0.178 ± 0.039
102 | E2R | -0.013 ± 0.03
103 | E2D | -0.013 ± 0.17
104 | E2Y | -0.046 ± 0.057
105 | E2T | -0.158 ± 0.032
106 | E2F | -0.009 ± 0.036
107 | E2M | -0.012 ± 0.026
108 | E2I | -0.029 ± 0.06
109 | G23E | 0.017 ± 0.088
110 | G23S | -0.021 ± 0.021
111 | G23C | -0.073 ± 0.059
112 | G23V | 0.113 ± 0.049
113 | Q6F | -0.059 ± 0.041
114 | Q6S | -0.017 ± 0.026
115 | Q6P | -0.245 ± 0.031
116 | Q6I | -0.009 ± 0.051
117 | Q6V | -0.076 ± 0.031
118 | Q6E | 0.034 ± 0.055
119 | F20R | -0.092 ± 0.022
120 | F20H | -0.045 ± 0.028

Row | Variant | abundance fitness
121 | F20D | -0.706 ± 0.044
122 | F20V | -0.024 ± 0.039
123 | F20E | -0.372 ± 0.031
124 | F20W | 0.004 ± 0.047
125 | R14N | -0.29 ± 0.11
126 | R14K | 0.004 ± 0.089
127 | R14S | -0.052 ± 0.04
128 | R14C | -0.233 ± 0.12
129 | R14A | -0.048 ± 0.036
130 | G30P | -0.209 ± 0.044
131 | G30T | -0.028 ± 0.043
132 | F7W | 0.123 ± 0.29
133 | F7S | -0.324 ± 0.088
134 | F7L | -0.297 ± 0.14
135 | D68Q | 0.001 ± 0.023
136 | D68C | -0.106 ± 0.058
137 | D68N | 0.006 ± 0.024
138 | D68A | -0.024 ± 0.023
139 | T21H | -0.191 ± 0.035
140 | T21D | -0.191 ± 0.088
141 | T21W | -0.753 ± 0.07
142 | T21F | -0.693 ± 0.045
143 | T21A | -0.158 ± 0.04
144 | T21N | -0.029 ± 0.055

Row | Variant | abundance fitness
145 | A47S | -0.048 ± 0.14
146 | A47G | 0.001 ± 0.024
147 | A47K | -0.015 ± 0.028
148 | A47D | 0.092 ± 0.087
149 | K31C | -0.12 ± 0.047
150 | K31S | -0.068 ± 0.029
151 | K31W | -0.323 ± 0.034
152 | K31Q | -0.034 ± 0.038
153 | K31E | 0.058 ± 0.054
154 | K31N | -0.217 ± 0.11
155 | K31G | -0.066 ± 0.025
156 | K31R | 0.018 ± 0.02
157 | Q13K | 0.042 ± 0.056
158 | Q13L | -0.005 ± 0.017
159 | Q13Y | 0.011 ± 0.1
160 | Q13E | -0.01 ± 0.057
161 | Q13S | -0.005 ± 0.027
162 | G26C | -0.043 ± 0.034
163 | G26W | -0.051 ± 0.025
164 | G26A | -0.027 ± 0.027
165 | T10P | -0.945 ± 0.073
166 | T10L | -0.013 ± 0.019
167 | T10R | -0.038 ± 0.026

— the Human Domainome abundance scans (Beltran et al. 2025)
